# Like-named read-outs stand apart in the source and are kept apart here.
# Format: physicochemical
# Conditions: about 2.5±1.0 mg/mL conjugate in 10 mM PBS buffer (pH=7.4), 37° C., shaker 100 rpm, average release of free drug per day
# [1] = daily ultrafiltration (30 k), free drug by HPLC
Substance,Release rate (%/day) [1] [%/day],Release rate (%/day) ([…])
"conjugate between HA (Sodium hyaluronate) and [4-[[(3R,4R)-1-(2-cyanoacetyl)-4-methyl-3-piperidyl]-methyl-amino]pyrrolo[2,3-d]pyrimidin-7-yl]methyl 2-aminoacetate [Example 68]",10.81,
"conjugate between HA (Sodium hyaluronate) and [4-[[(3R,4R)-1-(2-cyanoacetyl)-4-methyl-3-piperidyl]-methyl-amino]pyrrolo[2,3-d]pyrimidin-7-yl]methyl 4-aminobutanoate [Example 69]",16.47,
"conjugate of 2-azaspiro[3.3]heptan-6-yl-4-(((3R,4R)-1-(2-cyanoacetyl)-4-methylpiperidin-3-yl)(methyl)amino)-7H-pyrrolo[2,3-d]pyrimidine-7-carboxylate and HA [Example 73]",1.90,
"conjugate of 2-chloroethyl 4-[[(3R,4R)-1-(2-cyanoacetyl)-4-methyl-3-piperidyl]-methyl-amino]pyrrolo[2,3-d]pyrimidine-7-carboxylate and HA [Example 57]",9.28,
"conjugate of 3-((3R,4R)-3-((7-(6-amino-2-azaspiro[3.3]heptane-2-carbonyl)-7H-pyrrolo[2,3-d]pyrimidin-4-yl)(methyl)amino)-4-methylpiperidin-1-yl)-3-oxopropanenitrile and HA [Example 81]",0.28,
"conjugate of N-(4-(aminomethyl)phenyl)-4-(((3R,4R)-1-(2-cyanoacetyl)-4-methylpiperidin-3-yl)(methyl)amino)-7H-pyrrolo[2,3-d]pyrimidine-7-carbothioamide and HA [Example 23]",,1.01

# Reference: patent US20230256106A1, “DRUG DELIVERY SYSTEM FOR LOCALLY DELIVERING THERAPEUTIC AGENTS AND USES THEREOF” (priority 2020, published 2023)
